This note sets out measurements from patent publication US20220096653A1, “CONJUGATE COMPRISING LIGAND AND CEACAM5 ANTIBODY FAB FRAGMENT” (ASTELLAS PHARMA INC., priority 2019, published 2022).

Broadly, the EC50 is the midpoint of the concentration-response curve.

Like-named read-outs stand apart in the source and are kept apart here.

Series [1] concerns the target human cancer-specific MUC1 peptide (Homo sapiens, UniProt P15941). Nature of the series: ELISA binding activity of anti-human MUC1 antibody Fab^5 fragment conjugates (Example 6-2). The protocol: (§1) Each anti-human MUC1 antibody Fab^5 fragment conjugate prepared by the method of Example 5 was subjected to ELISA to evaluate the binding activity thereof to human cancer-specific MUC1. In the present test, 20×PBS/Tween 20 Buffer (Thermo Fisher Scientific Inc., 28352) diluted 20-fold with distilled water was used as a wash liquid. In addition, for bovine serum albumin (BSA) used in the present test, 30% Bovine Serum Albumin solution (Sigma-Aldrich, Inc., A9576-50ML) was added in an appropriate proportion for use. A human cancer-specific MUC1 peptide (PTL 1) at 0.5 μmol/L was added to a Nunc MaxiSorp White 384 plate (Nunc, 460372) at 30 μL per well, and the plate was incubated overnight at 4° C. for immobilization. The MUC1 peptide was removed by reverse centrifugation, and then blocking was carried out by adding a PBS/Tween 20 buffer containing 5.0% BSA. Thereafter, the blocking solution was removed by reverse centrifugation, a solution of each anti-human MUC1 antibody Fab^5 fragment conjugate (Ex-No. 101-113) described above at about 10000 ng/mL was diluted in 14 steps by 3-fold dilution using a PBS/Tween 20 buffer containing 1.0% BSA, and 30 μL was added per well and incubated at room temperature for 60 minutes. The plate was washed 3 times with a PBS/Tween 20 buffer, and Horseradish Peroxidase-labeled goat anti-human IgK antibody (Southern Biotechnology Associates, Inc.) diluted 10000-fold using a PBS/Tween 20 buffer containing 5.0% BSA was added at 30 μL per well and incubated at room temperature for 30 minutes. The plate was washed 3 times with a PBS/Tween 20 buffer, and ECL Prime Western Blotting DETECTION Reagent (GE Healthcare, RPN2232) as a substrate was added at 30 μL per well. The substrate was incubated at room temperature for 15 minutes, and then a signal value thereof was measured using an Envision counter (PerkinElmer, Inc.).
(§2) The test for each antibody was carried out in duplicate, and the EC50 value was calculated using a 4-parameter logistic curve model.
Background: An ELISA detects its analyte on a solid surface through an enzyme-linked reagent.

Series [2] deals with human cancer-specific MUC1 peptide. As to the kind of experiment: ELISA binding activity of anti-human MUC1 antibody Fab^5 fragment conjugates (Example 6-1). The protocol:
as §1, with “104, 108, or 112)” for “101-113)”
as §2

Details of series [3]: species or system mice (BALB/c nu/nu). As to conditions: mouse, in vivo.
Method: A Gd-labeled conjugate of the conjugate containing a peptide linker produced in one of the above Examples was administered from the tail vein of the tumor-bearing mice so that the protein mass was 0.02 mg (100 μL) per animal. As the tumor-bearing mice used in the present Example, mice (BALB/c nu/nu) that were in a tumor-bearing state brought about by transplanting human breast cancer cell line MDA-MB-468 (ATCC(registered trademark); HTB-132) at 5.0×10^6 cells/mouse subcutaneously on the back before administration of the sample were used. 24 hours after administration of the sample, the mice were sacrificed, the kidneys and the tumor were removed, and the amounts of Gd in the kidneys and in the tumor were measured using ICP-MS. The present test was carried out in 3 cases in each group, and the mean value of the 3 cases was calculated. The amount of Gd contained per kidney after administration was shown as a percentage of the amount of Gd administered (% of dose/tissue), and the amount of Gd contained per g of tumor tissue was shown as a percentage of the total amount of Gd administered (% of dose/g).
Details of series [4]: species or system mice (BALB/c or BALB/c nu/nu). As to conditions: mouse, in vivo.
Method: A Gd-labeled conjugate of the conjugate containing a peptide linker produced in one of the above Examples was administered from the tail vein of mice (BALB/c or BALB/c nu/nu) so that the protein mass was 0.02 mg (100 μL) per animal. After about 24 hours, the mice were sacrificed and the kidneys were removed, and the amount of Gd in the kidneys was measured using ICP-MS. The present test was carried out in 3 cases in each group, the mean value of the 3 cases was calculated, and the amount of Gd contained per kidney after administration was shown as a percentage (% of dose/tissue) of the total amount of Gd administered.
Based on the amount of Gd contained in the kidneys of the control conjugate, the proportion of decrease in the amount of Gd contained in the kidneys of each of the conjugates having a peptide linker was determined.
The target of series [5] is human cancer-specific MUC1 peptide (PTL 1) (human). Nature of the series: ELISA on immobilised human cancer-specific MUC1 peptide, 4-parameter fit, duplicate (Example 6-1).
For series [6] the target is unchanged. Nature of the series: ELISA on immobilised human cancer-specific MUC1 peptide, 4-parameter fit, duplicate (Example 6-2).
Setting [7] is: each conjugate run in duplicate, Table 54, read-out: EC50.
Where [8] appears, read: each conjugate run in duplicate, Table 52, read-out: EC50.

Chain of human cancer-specific MUC1 peptide (Homo sapiens, UniProt P15941) (P15941 136-155): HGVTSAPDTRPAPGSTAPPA

B1: P10-2: anti-human MUC1 antibody Fab fragment disclosed in International Publication WO2018/092885; heavy chain fragment SEQ ID NO: 8, light chain SEQ ID NO: 10 (antibody)
heavy: QVQLVQSGAEVKKPGASVKVSCKASGYTFTNYGLSWVRQAPGQGLEWMGENHPGSGIIYHNEKFRGRVTLTADRSTSTAYMELSSLRSEDTAVYYCARSSGTRGFDYWGQGTLVTVSSASTKGPSVFPLAPSSKSTSGGTAALGCLVKDYFPEPVTVSWNSGALTSGVHTFPAVLQSSGLYSLSSVVTVPSSSLGTQTYICNVNHKPSNTKVDKKVEPKSCD
light: DVVMTQTPLSLSVTPGQPASISCRSSQSIVHSNGNTYLEWYLQKPGQSPQLLIYRVSNRFSGVPDRFSGSGSGTDFTLKISRVEAEDVGVYYCFQGSHGPWTFGQGTKLEIKRTVAAPSVFIFPPSDEQLKSGTASVVCLLNNFYPREAKVQWKVDNALQSGNSQESVTEQDSKDSTYSLSSTLTLSKADYEKHKVYACEVTHQGLSSPVTKSFNRGEC
modifications: P10-2 Fab heavy chain fragment; Antibody light chain
Turning to B1, the EC50 in series [1] (EC50 value for each of 3 runs, Table 53, read-out: EC50 P10-2) is 0.06 nM; in series [2] (EC50 value for each of 3 runs, Table 51, read-out: EC50 P10-2) it was 0.06 nM.

B2: [Gd/DOTA-NH—CH2-(1,4-Ph)-NH—C(═O)-Met-Ile-NH—(CH2)2—Z1(#N)]p-Fab^5 (conjugate)
heavy: B1 heavy
light: B1 light
modifications: non-natural residues
Take B2: the concentration for a half-maximal effect (EC50) in series [1] (setting [7]) worked out at 0.08 nM.

B3: [Gd/DOTA-[2,5-(1,2,3,4-tetrahydroisoquinoline)]-C(═O)-Met-Gly-Lys*-C(═S)—NH-(1,4-Ph)-NH—C(═S)]p-Fab^5 (conjugate)
heavy: B1 heavy
light: B1 light
modifications: non-natural residues
As for B3, the half-maximal effective concentration (EC50) in series [1] (setting [7]) came out at 0.19 nM.

B4: [Gd/DOTA-NH—CH2-(1,4-Ph)-NH—C(═O)-Met-Ile-NH—(CH2)2-(A-4 and/or A-5)]p-Fab^5 (conjugate)
heavy: B1 heavy
light: B1 light
modifications: non-natural residues
For the molecule B4, in series [2] (setting [8]), the EC50 was found to be 0.08 nM. In addition, in series [3], the “Renal residual amount (tumor-bearing mice) % of dose/tissue” value is 3.17 % of dose/tissue and the “Renal residual amount (tumor-bearing mice) Proportion of decrease” value worked out at 90.87%. In addition, in series [4], the “Renal residual amount (normal mice) % of dose/tissue” value is on record as 2.30 % of dose/tissue and the “Renal residual amount (normal mice) Proportion of decrease” value turned out to be 93.03%.

B5: [Gd/DOTA-NH—CH2-(1,4-Ph)-NH—C(═O)-Met-Ile-NH—(CH2)2-(A-3)]p-Fab^5 (conjugate)
heavy: B1 heavy
light: B1 light
modifications: non-natural residues
On to B5, for which the EC50 in series [2] (setting [8]) came out at 0.15 nM. For the same molecule, in series [3], the “Renal residual amount (tumor-bearing mice) % of dose/tissue” value is listed as 4.13 % of dose/tissue and the “Renal residual amount (tumor-bearing mice) Proportion of decrease” value was determined as 88.08%. In series [4], the “Renal residual amount (normal mice) % of dose/tissue” value was 2.80 % of dose/tissue and the “Renal residual amount (normal mice) Proportion of decrease” value stood at 91.52%.

B6: [Gd/DOTA-NH-CH2-(1,4-Ph)-NH-C(═O)-Met-Ile-NH-(CH2)2-(A-4 and/or A-5)]p-Fab^5 (Fab, V domains shown)
VH: QVQLVQSGAEVKKPGASVKVSCKASGYTFTNYGLSWVRQAPGQGLEWMGENHPGSGIIYHNEKFRGRVTLTADRSTSTAYMELSSLRSEDTAVYYCARSSGTRGFDYWGQGTLVTVSS
VL: DVVMTQTPLSLSVTPGQPASISCRSSQSIVHSNGNTYLEWYLQKPGQSPQLLIYRVSNRFSGVPDRFSGSGSGTDFTLKISRVEAEDVGVYYCFQGSHGPWTFGQGTKLEIKR
modifications: labeling may sit on this chain; sites not stated; labeling portion (MW 1092) on amino groups of the Fab, sites and chain not stated; 1-3 per Fab by MS; Gln 1 pyroglutamic acid as Fab^5 is defined in paragraph 370
As to B6, the 50% effective concentration (EC50) in series [5] stood at 0.08 nM.

B7: [Gd/DOTA-NH-CH2-(1,4-Ph)-NH-C(═O)-Met-Ile-NH-(CH2)2-(A-3)]p-Fab^5 (Fab, V domains shown)
VH: B6 VH
VL: B6 VL
modifications: labeling may sit on this chain; sites not stated; labeling portion (MW 1187) on amino groups of the Fab, sites and chain not stated; 1-2 per Fab by MS; Gln 1 pyroglutamic acid as Fab^5 is defined in paragraph 370
In turn, B7 gave an EC50 in series [5] of 0.15 nM.

B8: Ex-No 108, conjugate of Fab^5 without peptide linker (structure given only as drawing CHEM-US-00165) (Fab, V domains shown)
VH: B6 VH
VL: B6 VL
modifications: labeling may sit on this chain; sites not stated; low molecular weight molecule (MW 542) bound to the Fab, sites and chain not stated; 1-3 per Fab by MS; Gln 1 pyroglutamic acid as Fab^5 is defined in paragraph 370
Take B8: the EC50 in series [6] and in series [5] was 0.07 nM throughout.
